Source: the Human Domainome abundance scans (Beltran et al. 2025)
± gives the uncertainty stated by the source.

B1: POU domain, class 2, transcription factor 2, residues 200 to 269; numbered along this chain, P09086 (parent)
chain: LEELEQFARTFKQRRIKLGFTQGDVGLAMGKLYGNDFSQTTISRFEALNLSFKNMCKLKPLLEKWLNDAE
B2: Peroxisome proliferator-activated receptor delta, residues 71 to 145; numbered along this chain, Q03181 (parent)
chain: NMECRVCGDKASGFHYGVHACEGCKGFFRRTIRMKLEYEKCERSCKIQKKNRNKCQYCRFQKCLALGMSHNAIRF

Variants of: B1
Assay: abundance fitness (aPCA) (normalised: wild type 0, dead -1); higher = more abundant; growth selection in yeast, the domain comes from the species named
Details: Homo sapiens

| Variant | abundance fitness |
| --- | --- |
| D68Y | -0.076 ± 0.074 |
| A69D | -0.233 ± 0.088 |
| A69E | 0.009 ± 0.069 |
| A69F | -0.179 ± 0.085 |
| A69G | -0.126 ± 0.049 |
| A69I | 0.012 ± 0.11 |
| A69K | -0.105 ± 0.063 |
| A69L | -0.034 ± 0.062 |
| A69N | 0.128 ± 0.25 |
| A69P | -0.15 ± 0.054 |
| A69R | -0.007 ± 0.049 |
| A69S | -0.046 ± 0.051 |
| A69T | 0.056 ± 0.069 |
| A69V | -0.084 ± 0.057 |
| A69Y | -0.107 ± 0.093 |
| E70A | -0.047 ± 0.07 |

| Variant | abundance fitness |
| --- | --- |
| E70C | -0.092 ± 0.12 |
| E70D | 0.054 ± 0.054 |
| E70F | -0.2 ± 0.19 |
| E70G | -0.072 ± 0.069 |
| E70H | -0.341 ± 0.15 |
| E70K | -0.128 ± 0.085 |
| E70M | -0.072 ± 0.11 |
| E70N | -0.066 ± 0.16 |
| E70P | -0.253 ± 0.22 |
| E70Q | -0.07 ± 0.072 |
| E70R | -0.164 ± 0.052 |
| E70S | 0.071 ± 0.084 |
| E70T | -0.086 ± 0.089 |
| E70V | -0.035 ± 0.042 |
| E70W | -0.073 ± 0.065 |
| E70Y | -0.195 ± 0.11 |

Variants of: B2
Assay: as above
Details: Homo sapiens

| Variant | abundance fitness |
| --- | --- |
| S69H | -0.045 ± 0.089 |
| D9T | -0.327 ± 0.067 |
| T31Q | -0.792 ± 0.15 |
| K25W | 0.01 ± 0.043 |
| F28A | -0.603 ± 0.075 |
| I73L | 0.087 ± 0.037 |
| C58V | -0.944 ± 0.097 |
| H15T | -0.174 ± 0.047 |
| E37A | -0.13 ± 0.044 |
| R33E | 0.18 ± 0.053 |
| V18D | -0.396 ± 0.082 |
| N53L | -0.217 ± 0.044 |
| Q61I | -0.254 ± 0.1 |
| E37D | -0.034 ± 0.059 |
| K25Y | 0.114 ± 0.065 |
| E39A | -0.057 ± 0.036 |
| N51L | -0.133 ± 0.054 |
| N71F | -0.477 ± 0.11 |
| D9S | -0.178 ± 0.045 |
| R33Q | 0.058 ± 0.061 |
| S44A | -0.045 ± 0.039 |
| R5W | -0.118 ± 0.047 |
| C58D | -0.719 ± 0.17 |

| Variant | abundance fitness |
| --- | --- |
| L64P | -0.838 ± 0.12 |
| F14K | 0.006 ± 0.054 |
| R59P | -0.903 ± 0.16 |
| I47V | 0.004 ± 0.027 |
| M68C | -0.9 ± 0.17 |
| R5M | 0.067 ± 0.048 |
| G23F | -0.001 ± 0.084 |
| M68Q | -0.668 ± 0.12 |
| Y57Q | -0.862 ± 0.17 |
| K54E | 0.122 ± 0.041 |
| K54H | -0.059 ± 0.091 |
| F60Y | -0.223 ± 0.11 |
| G17F | -0.661 ± 0.16 |
| K40D | -0.408 ± 0.1 |
| V6Y | -0.748 ± 0.17 |
| L64N | -0.906 ± 0.21 |
| N1C | -0.421 ± 0.11 |
| C21T | -0.83 ± 0.1 |
| E42S | -0.117 ± 0.04 |
| V6I | 0.059 ± 0.069 |
| K10W | -0.206 ± 0.053 |
| R33G | -0.038 ± 0.039 |
| N53S | -0.005 ± 0.042 |

| Variant | abundance fitness |
| --- | --- |
| C41F | -0.398 ± 0.3 |
| I47W | -0.316 ± 0.034 |
| N71W | -0.362 ± 0.059 |
| D9N | -0.152 ± 0.064 |
| K62C | -0.543 ± 0.13 |
| Y16W | -0.27 ± 0.062 |
| V6M | -0.674 ± 0.12 |
| D9G | -0.198 ± 0.037 |
| G13C | -0.596 ± 0.12 |
| I73N | 0.039 ± 0.077 |
| Y38M | -0.631 ± 0.12 |
| H19Y | 0.038 ± 0.063 |
| I32N | -0.617 ± 0.2 |
| T31V | -0.394 ± 0.063 |
| A11L | -0.338 ± 0.048 |
| R59W | 0.204 ± 0.038 |
| F75G | 0.218 ± 0.047 |
| F28L | -0.842 ± 0.11 |
| E42G | -0.135 ± 0.028 |
| S12Q | -0.115 ± 0.057 |
| G13A | -0.239 ± 0.044 |
| N51V | -0.17 ± 0.043 |
| A72N | -0.092 ± 0.084 |

| Variant | abundance fitness |
| --- | --- |
| G17N | -0.238 ± 0.1 |
| Y38H | -0.718 ± 0.22 |
| I47H | -0.589 ± 0.1 |
| F60C | -0.84 ± 0.16 |
| M34C | -0.032 ± 0.058 |
| V18P | -0.492 ± 0.075 |
| C24N | -0.648 ± 0.3 |
| Q61L | -0.439 ± 0.053 |
| S12V | -0.222 ± 0.045 |
| N1I | 0.16 ± 0.078 |
| L66M | 0.109 ± 0.05 |
| N1K | -0.075 ± 0.073 |
| R30S | -0.088 ± 0.044 |
| G17I | -0.813 ± 0.19 |
| C58G | -0.822 ± 0.068 |
| K46I | 0.12 ± 0.068 |
| K62L | -0.318 ± 0.051 |
| A65Y | -0.301 ± 0.11 |
| N53I | -0.051 ± 0.074 |
| F14T | 0.066 ± 0.042 |
| R52P | 0.128 ± 0.045 |
| C55S | -0.823 ± 0.12 |
| T31S | -0.043 ± 0.041 |

| Variant | abundance fitness |
| --- | --- |
| I47T | -0.253 ± 0.048 |
| E37L | -0.16 ± 0.045 |
| R29V | 0.105 ± 0.039 |
| K46H | 0.047 ± 0.068 |
| G26V | -0.004 ± 0.039 |
| C7F | -0.867 ± 0.25 |
| S44R | -0.05 ± 0.032 |
| R59C | -0.442 ± 0.1 |
| M34V | -0.577 ± 0.082 |
| K46N | 0.029 ± 0.067 |
| R52N | -0.084 ± 0.09 |
| C45E | -0.838 ± 0.1 |
| Y57I | -0.919 ± 0.36 |
| K54P | -0.037 ± 0.053 |
| E22N | -0.207 ± 0.09 |
| C63S | -0.905 ± 0.11 |
| H70P | 0.185 ± 0.12 |
| E37V | -0.042 ± 0.035 |
| M34T | -0.36 ± 0.077 |
| A20E | -0.886 ± 0.16 |
| E22P | -0.294 ± 0.056 |
| F75E | 0.088 ± 0.09 |
| E39C | -0.586 ± 0.13 |

| Variant | abundance fitness |
| --- | --- |
| K49M | -0.065 ± 0.17 |
| M68P | -0.64 ± 0.11 |
| C63R | -0.508 ± 0.054 |
| K50L | -0.069 ± 0.042 |
| K49S | -0.207 ± 0.41 |
| K54Y | 0.17 ± 0.07 |
| K50T | -0.018 ± 0.051 |
| K40C | -0.216 ± 0.074 |
| K10F | -0.283 ± 0.11 |
| T31L | -0.985 ± 0.14 |
| G23R | -0.179 ± 0.036 |
| I73W | -0.152 ± 0.049 |
| H70Y | -0.162 ± 0.14 |
| R33M | 0.088 ± 0.066 |
| C55F | -0.824 ± 0.27 |
| G23L | -0.061 ± 0.04 |
| K62D | -0.671 ± 0.15 |
| D9M | -0.436 ± 0.086 |
| I73M | 0.137 ± 0.051 |
| E42D | -0.16 ± 0.073 |
